The text below walks through data of article PMC2444022.

In data set [1] the test system is LysRS(K130A) (Escherichia coli). The experiment in a line: EMSA. Conditions: gel-retardation buffer, pH and temperature not in material. In general terms: In EMSA bound probe runs differently from free probe, usually more slowly.
Data set [2] relates to LysRS wild type (lysyl-tRNA synthetase) (Escherichia coli). Nature of the data set: EMSA. Conditions: reference; gel-retardation buffer, pH and temperature not in material.
For data set [3], the system named is LysRS(T133A) (Escherichia coli). Nature of the data set: EMSA. Conditions: gel-retardation buffer, pH and temperature not in material.
Data set [4] concerns LysN (anticodon-binding domain of LysRS) (Escherichia coli). Conditions: gel-retardation buffer, pH and temperature not in material; cited from earlier work.

Take tRNALys: the binding signal (fraction of WT bound) in data set [1] amounted to 0.35; in data set [2] it was 1; in data set [3], 1.17.
For orientation: Kd means the constant that tells how readily two partners part at equilibrium. With tRNALys (unlabeled competitor), the Kd in data set [4] is 100 µM.
